Assay results taken from US20230391853A1 (FAPON BIOTECH, published 2023).

Target: T1, 2019-nCoV N protein antigen (2019-nCoV (novel coronavirus), UniProt P0DTC9 1-419)
T1 construct: Coated on plates in ELISA; in solution in the AMC sensor assay; also called N protein of the novel coronavirus; nucleocapsid protein (N protein)
Assay: AMC sensor kinetics, antibody captured
Method: Operational process: equilibrium was performed in buffer 1 (PBST) for 60 s, the antibody was cured in an antibody solution for 300 s, incubation was performed in buffer 2 (PBST) for 180 s, binding was performed in an antigen solution for 420 s, dissociation was performed in buffer 2 for 1200 s, sensor regeneration was performed with a 10 mM pH 1.69 GLY solution and buffer 3, and data were outputted. KD represents an equilibrium dissociation constant, that was, the affinity; kon represents the binding rate; and kdis represents the dissociation rate.

B1: WT (antibody, mouse IgG1, kappa, V domains shown)
VH: DVQLVESGGGLVQPGGSRKLSCAASGVTFSTFAMHWVRQAPEKGLEWVAYLNSASNLIYYADTLKGRFTISRDNPKNTLFLQMTSLRSEDTAMYYCTRHAMDYWGQGTSVTVSS
VL: DIVLTQSPASLAVSLGQRATISCKASQSIDYDGDSFMNWFQQKPGQPPKLLIYDASNVESGIPARFSGSGSGTDFTLNIHPVEEEDAATYYCQHSNEDPYTFGGGTKLEIKR
notes: also called VT; antibody in Embodiment 1
Which Kd does the source give for B1 here?
Its Kd is 8.03 nM.

And the koff?
Its koff is 0.00141 s⁻¹.

And the kon?
Its kon is 175000 M⁻¹ s⁻¹.
